# B1: sMDA-7: soluble secreted human MDA-7 (IL-24) protein purified from stably transfected 293-mda-7 cells (protein)
# chain: AQGQEFHFGPCQVKGVVPQKLWEAFWAVKDTMQAQDNITSARLLQQEVLQNVSDAESCYLVHTLLEFYLKTVFKNYHNRTVEVRTLKSFSTLANNFVLIVSQLQPSQENEMFSIRDSAHRRFLLFRRAFKQLDVEAALTKALGEVDILLTWMQKFYKL
# What was measured:
# HUVEC and HMVEC = assay: Endothelial cell proliferation assay (trypan blue); type: cell-based, human; settings: 1, 5, 10, 50 ng/ml; 1 ng/ml bFGF; vs PBS
# Experimental: To test the effect of sMDA-7 protein on cell proliferation, endothelial cells (HUVEC, HMVEC) were serum-starved overnight. The next day, cells were seeded in 2-well chamber slides (1−10^4/well). The cells were allowed to adhere and spread for 4-6 h, and fresh medium containing 1 ng/ml of bFGF as a proangiogenic stimulator, and various concentrations of sMDA-7/IL-24 (1, 5, 10, and 50 ng/ml) was added. Cells treated with PBS served as controls. Cells were then harvested 3 days after treatment and cell proliferation determined by trypan blue exclusion assay method as previously described (Saeki et aL, 2000). The effect of sMDA-7 on lung tumor cell (H1299, and A549) proliferation was also evaluated. The experimental conditions were the same as described above for endothelial cells except that tumor cells were not stimulated with bFGF.
# HUVECs = assay: Clonogenic survival of endothelial cells after irradiation; type: cell-based, human; settings: MDA-7 protein 10 ng/ml; angiostatin, endostatin 100 ng/ml; 12 h before irradiation
# Experimental: Twelve hours after seeding HUVECs in 4-well plates (Nunc, Roskilde, Denmark), medium was replaced with serum/growth factor-free medium. After serum/growth factor starvation for 12 hours, cells were treated with complete medium containing either MDA-7 protein (10 ng/ml) (removed from cultures of 293 cells), angiostatin (100 ng/ml), or endostatin (100 ng/ml). Twelve hours later, cells were irradiated with ^137CS unit (3.4 Gy/min) at room temperature, trypsinized and counted. Known numbers of cells were replated in 60 mm culture dishes and incubated to allow macroscopic colony development. Colonies were counted after 14 days, and the percent plating efficiency and surviving fractions following given treatments were calculated based on the survival of non-irradiated cells.
# A549 tumor xenografts = assay: A549 xenograft tumors with 293-mda-7 cells (mixing and distant implant); type: in vivo, nude mice; settings: 3 days postimplantation of 293-mda-7 cells
# Experimental: […] 293 cells and 293-mda-7 cells were first tested for their ability to form tumors. […] No tumors formed at this cell concentration, so subsequent experiments were performed using this cell number. For in vivo mixing experiments, human lung tumor cells (A549) grown to 90% confluency were trypsinized, washed, and resuspended in sterile phosphate-buffered saline at a concentration of 5×10^6/ml. The tumor-cell suspension was mixed with an equal number (5×10^6/ml) of parental 293 cells or with 293-mda-7 cells, gently vortexed, and injected subcutaneously in nude mice (10^6 cells/animal) as described above. Each group comprised of eight animals, and the experiments were done twice. Tumor growth was monitored and measured as described previously (Saeki et al., 2002). At the end of the experiment, animals were euthanized by CO2 inhalation, and tumors were harvested for histopathological analysis, western blot analysis, and for CD31 and TUNEL staining.
# To evaluate the systemic effect of sMDA-7 on tumor growth, subcutaneous tumors were established by injecting A549 tumor cells (5×10^6 cells) into the lower right flank of nude mice. […] The effect of sMDA-7 on tumor growth was monitored as described above. […]
# Tumor tissues were stained for CD31 and TUNEL as previously described (Saeki et al., 2002). […] Tissue sections were analyzed and quantitated, and the results interpreted in a blind fashion.
# [1] = test system: MiaPaCa2 pancreatic cancer cells; assay: MDA-7 protein on pancreatic cancer cells: STAT3 activation, killing; type: cell-based, human
# Experimental: MiaPaCa2 pancreatic cancer cells were treated with purified recombinant human MDA-7 protein, as described in Example 11. By immunofluorescence, substantial activation (phosphorylation) of STAT3 and concomitant movement of p-STAT3 to the nucleus were observed. The STAT3 activation was blocked in the presence of anti-MDA-7 antibodies.
# HUVEC = assay: Endothelial cell differentiation (tube formation) assay on Matrigel; type: cell-based, human
# Experimental: Endothelial cell differentiation (tube formation) assays were done using the in vitro angiogenesis assay kit (Chemicon, Temecula, Calif.). Briefly, HUVEC and HMVEC were grown to 80% confluency, collected, resuspended in growth medium, and plated at a concentration of 2−10^4 cells/well in a 96-well plate coated with Matrigel (Chemicon, Temecula, Calif.). Cells were treated with sMDA-7 protein (1, 5, 10, and 50 ng/ml), or a preparation immunodepleted of sMDA protein for 24 h at 37° C. Cells treated with PBS served as negative controls in these experiments. The ability of sMDA-7 to inhibit tube formation was determined and quantitated by counting the number of tubes under bright-field microscopy.
# For experiments involving comparative studies, cells were treated with equimolar concentrations of sMDA-7 (5, 10, and 300 ng/ml), recombinant human endostatin (5.2, 10.4, and 315 ng/ml; Calbiochem, La Jolla, Calif.), recombinant IFN-γ (4.5, 9, and 268 ng/ml; R&D systems, Minneapolis, Minn.) or recombinant IP-10 (2.4, 4.5, and 134 ng/ml; R&D systems, Minneapolis, Minn.) and analyzed for tube formation assay as described above. All samples were tested in duplicate. Experiments were repeated at least 5-6 times.
# For receptor blocking studies, HUVEC grown in six-well plates were pretreated with IL-22R1 blocking antibody (1 ng/ml and 5 ng/ml). Following overnight incubation, cells were harvested, washed, and plated in Matrigel coated 96-well plates. Fresh IL-22R1 blocking antibody and sMDA-7 was added to the wells in a 1:1 ratio (1 ng/ml of IL-22R1 antibody:1 ng/ml of sMDA-7) or 1:5 ratio (1 ng/ml of IL-22R1 antibody:5 ng/ml of sMDA-7) and incubated at 37° C. After overnight incubation, the plates were examined for tube formation. All other experimental procedures were the same as described above. […] The relative amount of IL-22R1 used for experiments involving endostatin was 315 ng/ml (1:1 ratio) and 134 ng/ml for experiments involving IP-10 (1:1 ratio). All other experimental procedures were the same as described previously. For blocking studies using anti-IP-10 or anti-IFN-γ neutralizing antibodies (R & D Systems), experiments were conducted as described above for receptor studies except that HUVEC were treated with the appropriate neutralizing antibody (1 μg and 5 μg/ml) prior to treatment with sMDA-7 (300 ng/ml).
molecule,measurement,setting,value
B1,antiproliferative activity,HUVEC and HMVEC,no significant antiproliferative activity
same,radiosensitization of HUVECs,HUVECs,sensitized
same,serum level of circulating sMDA-7 by ELISA,A549 tumor xenografts,approximately 50 ng/ml
same,killing of MiaPaCa2 cells,[1],dose-dependent killing
same,time to evident STAT3 activation,[1],≤ 30 min
same,inhibitory activity on tube formation in presence of anti-IP-10 or anti-IFN-γ neutralizing antibodies,HUVEC,not lost
same,tube formation,HUVEC; 5 ng/ml alone,completely inhibited
same,formation of capillary tube-like structures,"HUVEC; HUVEC and HMVEC, 1, 5, 10, 50 ng/ml",significantly inhibited
same,concentration required to significantly inhibit HUVEC tube formation,HUVEC; equimolar comparison,10 ng/mL
